From patent US20110165265A1 (FUNDACI GEN MICA CRG, published 2011) come the findings set out here.

Sequences and labels used below:
B1: DcR2-Ig receptor chimera (R&D Systems) (Fc fusion, UniProt Q9UBN6 56-211, looked up, not shown: a dimerising Fc or GST)
chain: ATIPRQDEVPQQTVAPQQQRRSLKEEECPAGSHRSEYTGACNPCTEGVDYTIASNNLPSCLLCTVCKSGQTNKSSCTTTRDTVCQCEKGSFQDKNSPEMCRTCRTGCPRGMVKVSNCTPRSDIKCKNESAASSTGKTPAAEETVTTILGMLASPYH
B2: TRAIL variant D269H (114-281) (ligand)
chain: MVRERGPQRVAAHITGTRGRSNTLSSPNSKNEKALGRKINSWESSRSGHSFLSNLHLRNGELVIHEKGFYYIYSQTYFRFQEEIKENTKNDKQMVQYIYKYTSYPDPILLMKSARNSCWSKDAEYGLYSIYQGGIFELKENDRIFVSVTNEHLIDMHHEASFFGAFLVG
notes: All mutants are said to be of the length 114-281; also called rhTRAIL carrying mutation D269H; DR5-selective variant
B3: TRAIL variant D269HE195R (114-281) (ligand)
chain: MVRERGPQRVAAHITGTRGRSNTLSSPNSKNEKALGRKINSWESSRSGHSFLSNLHLRNGELVIHEKGFYYIYSQTYFRFQERIKENTKNDKQMVQYIYKYTSYPDPILLMKSARNSCWSKDAEYGLYSIYQGGIFELKENDRIFVSVTNEHLIDMHHEASFFGAFLVG
notes: All mutants are said to be of the length 114-281; also called TRAIL-DR5; DE
B4: DcR1-Ig receptor chimera (R&D Systems) (Fc fusion, UniProt O14798 26-221, looked up, not shown: a dimerising Fc or GST)
chain: ATTARQEEVPQQTVAPQQQRHSFKGEECPAGSHRSEHTGACNPCTEGVDYTNASNNEPSCFPCTVCKSDQKHKSSCTMTRDTVCQCKEGTFRNENSPEMCRKCSRCPSGEVQVSNCTSWDDIQCVEEFGANATVETPAAEETMNTSPGTPAPAAEETMNTSPGTPAPAAEETMTTSPGTPAPAAEETMTTSPGTPA

In assay [1] the target is B2. Briefly: cell-based or functional assay.
Assay [2] concerns the target B4. Nature of the assay: SPR (Biacore 3000, 37 °C), DcR1-Ig captured on protein A, pre-steady state. (In general: SPR reads the build-up and loss of mass on a sensor chip optically.)
Assay [3] deals with B1. Briefly: SPR (Biacore), DcR2-Ig captured on a protein A-modified CM5 chip, response in RU against ligand concentration (pre-steady state).
For assay [4], the target named is death receptor 5 (DR5) on the cell surface (human, UniProt O14763 56-440). Briefly: cell-based or functional assay.
The target of a further assay is T1, DR5-Ig (UniProt O14763 54-182).
T1 construct: also called sDR5; soluble recombinant DR5-Ig; not shown: Ig (Fc) part
Nature of the assay: not stated there (SPR by the context of paragraph 339).

In assay [5] the target is wild-type TRAIL (recombinant human soluble TRAIL, amino acids 114-281) (human, UniProt P50591 114-281). Briefly: cell-based or functional assay.
wild-type TRAIL (recombinant human soluble TRAIL, amino acids 114-281), sequence (P50591 114-281 limits assumed): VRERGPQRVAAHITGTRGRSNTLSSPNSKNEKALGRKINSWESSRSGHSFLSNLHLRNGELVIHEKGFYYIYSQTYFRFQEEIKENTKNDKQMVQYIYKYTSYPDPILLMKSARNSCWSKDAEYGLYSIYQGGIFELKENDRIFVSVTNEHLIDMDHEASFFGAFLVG
For assay [6], the target named is B3. Nature of the assay: cell-based or functional assay.

As to B1, in assay [1], the “block of ligand-induced apoptosis of Colo205 cells (Annexin V) after pre-incubation of the ligand with soluble receptor” value was found to be 2 fold.
Regarding B2, the “fold reduction of binding compared to wtTRAIL” value in assay [2] was approximately 20 fold. Also, the binding result in assay [3] is “binds”.
B3: in assay [4], the “rate of receptor activation relative to wtTRAIL” value is 17 fold. The “fold increase in kon compared to wtTRAIL” value with DR5-Ig is less than 5 fold. For the same molecule, the “fold reduction of binding compared to wtTRAIL” value in assay [2] was approximately 20 fold. Besides, in assay [3], the binding result is on record as “binds”.
On to B4, for which the “block of ligand-induced apoptosis of Colo205 cells (Annexin V) after pre-incubation of the ligand with soluble receptor” value in assay [5] is 0.5 µg/mL; in assay [1], more than 2 µg/mL; in assay [6] it was more than 2 µg/mL.
